The data set in a line: Aldol cleavage reaction of fructose 1,6-bisphosphate, coupled with TIM/G3PDH, NADH 340 nm. To be noted: F1,6P2 cleaved, 37° C., 30 minutes, pH 8.0. The format is biochemical. How it is done: The aldolase activity of the human 35 kd protein was determined as follows, according to the method described in a reference (Novel Biochemistry Experiment Lectures, Vol. 15, Metabolism Abnormality, p. 111, edit. Biochemical Society of Japan, publish. Tokyo Kagaku Dojin-sha, Sep. 22, 1992):
Conjugated with triose phosphate isomerase (TIM) and glycerol 3-phosphate dehydrogenase (G3PDH), the aldol cleavage reaction of fructose 1,6-bisphosphate (F1, 6P2) with the 35 kd protein was determined with NADH.
A reaction liquid having the composition mentioned below was prepared, and reacted at 37° C. for 30 minutes. The enzymatic reaction was monitored through the reduction in the 340 nm absorbance owing to the oxidation of NADH in the reaction liquid. The enzymatic reaction was indicated by the number of mols of F1, 6P2, per mg of the protein, cleaved within 1 minute (μmol/min/mg protein).
Reaction liquid 200 μl: 0.25 mM tris HCl buffer (pH 8.0), 0.15 M NaCl, 0.5 mM F1, 6P2 (from Sigma), human 35 kd protein, human liver TIM (500 μg/ml), rabbit skeletal muscle G3PDH (8 units/ml, from Sigma), 0.3 mM NADH (from Nakarai).
For comparison, a commercial product aldolase, Sigma's rabbit skeletal muscle aldolase (A-type aldolase), and an enzyme-free system were tested in the same manner.

For the substance “Sigma's commercial product aldolase: commercial product aldolase, Sigma's rabbit skeletal muscle aldolase (A-type aldolase)”, the “Aldolase Activity (μmol/min/mg protein)” value is 0.278 μmol/min/mg protein.

The record behind these values is US7371842B2, “Polynucleotide encoding a 35 KDA protein thats binds to WF00144” (Astellas Pharma Inc., priority 2002, dated 2008).
